Patent US10962518B2, “Dissolution test for sensitive drugs” (ROYAN INSTITUTE, priority 2017, dated 2021)
Read-outs that look alike come from different tables or passages of the source.

Tests used:
[1] = cited from earlier work; for tstability of drug: at 37° C.
[2] = hGH stability tests in phosphate buffer (0.01 ppm hGH solution, stability versus time); format: physicochemical; conditions: 0.01 ppm hGH in 0.05 M phosphate buffer pH=7.4
Procedure: In this example, exemplary systems and methods were used for performing dissolution tests on human growth hormone (hGH), consistent with an exemplary embodiment of the present disclosure. The release performance of hGH was evaluated for a 14-day period. First, the stability of hGH in a phosphate buffer at 37±1° C. was tested. To this end, a 0.01 ppm hGH solution in a 0.05 M phosphate buffer with a pH=7.4 was prepared. The prepared hGH solution was maintained at a temperature of approximately 37±1° C. and stability analyses were performed at 0, 1, 2, 3, 4, 6, 12, and 24 hours.
FIG. 4 illustrates an hGH stability versus time graph obtained from stability tests performed at 37±1° C., consistent with one or more exemplary embodiments of the present disclosure. […] Therefore, if a dissolution test was to be performed by available USP apparatuses, the hGH solution would have to be prepared, sampled and analyzed every 2 hours, which means for a dissolution evaluation that needs to be performed during a 14-day period, at least 168 dissolution tests must be performed.
The stability of hGH was then tested in a phosphate buffer at 5±2° C. To this end, a 0.01 ppm hGH solution in a 0.05 M phosphate buffer with a pH=7.4 was prepared. The prepared hGH solution was maintained at a temperature of approximately 5±2° C. and stability analyses were performed at 0, 1, 2, 3, 4, and 5 days. […]

Compound: hGH: human growth hormone (hGH), the temperature-sensitive drug used in the Example
- tstability of drug ([1]; PBS buffer pH = 7.4): 1 h
- time for which the hGH solution is stable ([2]; 5±2° C., analyses at 0-5 days (FIG. 5)): 1 days
- time for which the hGH solution is stable ([2]; 37±1° C., analyses at 0-24 hours (FIG. 4)): 0.083 days

Compound: IGF-I: IGF-I, a drug listed in Table 2 with serum as its dissolution medium
- tstability of drug ([1]; serum): <10 h

Compound: O=C1CN(/N=C/c2ccc(-c3ccc([N+](=O)[O-])cc3)o2)C(=O)[N-]1.[Na+] [Dantrolene, dantrolene sodium]
- tstability of drug ([1]; Buffer with pH 7.4): 1 h
- time for which the drug is stable in the dissolution medium ([1]; phosphate buffer with a pH of 7.4, approximately 37° C.): 1 h

Compound: COc1ccc2[nH]c([S+]([O-])Cc3ncc(C)c(OC)c3C)nc2c1 (stereo not shown) [Omeprazole]
- tstability of drug ([1]; phosphate buffer pH 7.5): <10 h
